Source: US20190015518A1, “DRUG DELIVERY COMPOSITIONS AND METHODS” (priority 2016, published 2019)

Experiment: Hematology of a healthy dog given 1.5 mg/kg on day 1 and 2.0 mg/kg on day 70, sub-mucosa
Type: in vivo
Method: Before each dose, the dog was examined by clinical chemistry, hematology, and urinalysis. Additional examinations of clinical chemistry and hematology were performed on days 7, 14, and 42 after the first dose. Additional tests of urinalysis were performed on days 7 and 14 after the first dose. The potential drug-induced toxicities were monitored for 56 days after the second dose. Specifically, clinical chemistry and urinalysis were performed on days 7, 14, 21, and 56, and hematology was performed on days 7, 14, and 56 after the second dose to evaluate the tolerability and toxicity of the formulation.
Hematology examinations were performed at pre- and post-dose for both injections. The injections were given via the sub-mucosa in the mouth.

Substance: HA-cis-[Pt(NH3)2(N^α-Acetyl-L-Lysine)] [75HA-Lys-Pt]
- Differential white blood cell count, % BASO (2 mg/kg, 7 days after): 0.9%
- Differential white blood cell count, % EOS (2 mg/kg, 7 days after): 1.9%
- Differential white blood cell count, % LUC (2 mg/kg, 7 days after): 0.8%
- Differential white blood cell count, % LYMPH (2 mg/kg, 7 days after): 29%
- Differential white blood cell count, % MONO (2 mg/kg, 7 days after): 7.5%
- Differential white blood cell count, % NEUT (2 mg/kg, 7 days after): 60%
- Hematocrit (2 mg/kg, 7 days after): 38%
- Hemoglobin (2 mg/kg, 7 days after): 12.7 g/dL
- Hemoglobin distribution width (2 mg/kg, 7 days after): 1.84 g/dL
- Mean corpuscular (cell) hemoglobin (2 mg/kg, 7 days after): 21.9 pg
- Mean corpuscular (cell) hemoglobin concentration (2 mg/kg, 7 days after): 33.4 g/dL
- Mean corpuscular (cell) volume (2 mg/kg, 7 days after): 65.6 fL
- Platelet count (2 mg/kg, 7 days after): 36 10^3/μL
- Red blood cell count (2 mg/kg, 7 days after): 5.79 10^6/μL
- Red cell distribution width (2 mg/kg, 7 days after): 13.5%
- Reticulocyte count (2 mg/kg, 7 days after): 1.59%
- White blood cell count (2 mg/kg, 7 days after): 8.2 10^3/μL
- Differential white blood cell count, % BASO (2 mg/kg, 14 days after): 0.5%
- Differential white blood cell count, % EOS (2 mg/kg, 14 days after): 3.4%
- Differential white blood cell count, % LUC (2 mg/kg, 14 days after): 0.6%
- Differential white blood cell count, % LYMPH (2 mg/kg, 14 days after): 28.5%
- Differential white blood cell count, % MONO (2 mg/kg, 14 days after): 4.3%
- Differential white blood cell count, % NEUT (2 mg/kg, 14 days after): 62.7%
- Hematocrit (2 mg/kg, 14 days after): 35.6%
- Hemoglobin (2 mg/kg, 14 days after): 11.8 g/dL
- Hemoglobin distribution width (2 mg/kg, 14 days after): 2.33 g/dL
- Mean corpuscular (cell) hemoglobin (2 mg/kg, 14 days after): 21.6 pg
- Mean corpuscular (cell) hemoglobin concentration (2 mg/kg, 14 days after): 33.1 g/dL
- Mean corpuscular (cell) volume (2 mg/kg, 14 days after): 65.2 fL
- Platelet count (2 mg/kg, 14 days after): 232 10^3/μL
- Red blood cell count (2 mg/kg, 14 days after): 5.47 10^6/μL
- Red cell distribution width (2 mg/kg, 14 days after): 14.2%
- Reticulocyte count (2 mg/kg, 14 days after): 3.2%
- White blood cell count (2 mg/kg, 14 days after): 10.43 10^3/μL
- Differential white blood cell count, % BASO (2 mg/kg, 56 days after): 0.7%
- Differential white blood cell count, % EOS (2 mg/kg, 56 days after): 4.3%
- Differential white blood cell count, % LUC (2 mg/kg, 56 days after): 0.5%
- Differential white blood cell count, % LYMPH (2 mg/kg, 56 days after): 26.6%
- Differential white blood cell count, % NEUT (2 mg/kg, 56 days after): 63.4%
- Hematocrit (2 mg/kg, 56 days after): 36.9%
- Hemoglobin (2 mg/kg, 56 days after): 12.1 g/dL
- Hemoglobin distribution width (2 mg/kg, 56 days after): 2.04 g/dL
- Mean corpuscular (cell) hemoglobin (2 mg/kg, 56 days after): 21.4 pg
- Mean corpuscular (cell) hemoglobin concentration (2 mg/kg, 56 days after): 32.8 g/dL
- Mean corpuscular (cell) volume (2 mg/kg, 56 days after): 65.4 fL
- Red blood cell count (2 mg/kg, 56 days after): 5.64 10^6/μL
- Red cell distribution width (2 mg/kg, 56 days after): 13.7%
- Reticulocyte count (2 mg/kg, 56 days after): 1.3%
- White blood cell count (2 mg/kg, 56 days after): 11.3 10^3/μL
- Differential white blood cell count, % BASO ([…], 7 days after): 0.7%
- Differential white blood cell count, % EOS ([…], 7 days after): 2.0%
- Differential white blood cell count, % LUC ([…], 7 days after): 0.6%
- Differential white blood cell count, % LYMPH ([…], 7 days after): 37.6%
- Differential white blood cell count, % NEUT ([…], 7 days after): 55.4%
- Hematocrit ([…], 7 days after): 37.8%
- Hemoglobin ([…], 7 days after): 12.7 g/dL
- Hemoglobin distribution width ([…], 7 days after): 2.08 g/dL
- Mean corpuscular (cell) hemoglobin ([…], 7 days after): 23.0 pg
- Mean corpuscular (cell) hemoglobin concentration ([…], 7 days after): 33.6 g/dL
- Mean corpuscular (cell) volume ([…], 7 days after): 68.4 fL
- Platelets (footnote a) ([…], 7 days after): ^aPlatelets appear adequate. Platelet clumps observed, number not reported.
- Red blood cell count ([…], 7 days after): 5.53 10^6/μL
- Red cell distribution width ([…], 7 days after): 13.3%
- Reticulocyte count ([…], 7 days after): 1.40%
- White blood cell count ([…], 7 days after): 7.69 10^3/μL
- Differential white blood cell count, % BASO ([…], 14 days): 0.7%
- Differential white blood cell count, % EOS ([…], 14 days): 2.0%
- Differential white blood cell count, % LUC ([…], 14 days): 0.6%
- Differential white blood cell count, % LYMPH ([…], 14 days): 37.6%
- Differential white blood cell count, % NEUT ([…], 14 days): 55.4%
- Hematocrit ([…], 14 days): 38.2%
- Hemoglobin ([…], 14 days): 12.6 g/dL
- Hemoglobin distribution width ([…], 14 days): 2.29 g/dL
- Mean corpuscular (cell) hemoglobin ([…], 14 days): 22.6 pg
- Mean corpuscular (cell) hemoglobin concentration ([…], 14 days): 33.0 g/dL
- Mean corpuscular (cell) volume ([…], 14 days): 68.7 fL
- Platelet count ([…], 14 days): 307 10^3/μL
- Red blood cell count ([…], 14 days): 5.56 10^6/μL
- Red cell distribution width ([…], 14 days): 13.7%
- Reticulocyte count ([…], 14 days): 1.84%
- White blood cell count ([…], 14 days): 12.91 10^3/μL
- Differential white blood cell count, % BASO ([…], 42 days): 1.4%
- Differential white blood cell count, % EOS ([…], 42 days): 2.0%
- Differential white blood cell count, % LUC ([…], 42 days): 0.8%
- Differential white blood cell count, % LYMPH ([…], 42 days): 37.6%
- Differential white blood cell count, % MONO ([…], 42 days): 5.1%
- Differential white blood cell count, % NEUT ([…], 42 days): 53.1%
- Hematocrit ([…], 42 days): 46.4%
- Hemoglobin ([…], 42 days): 15.3 g/dL
- Hemoglobin distribution width ([…], 42 days): 1.71 g/dL
- Mean corpuscular (cell) hemoglobin ([…], 42 days): 22.4 pg
- Mean corpuscular (cell) hemoglobin concentration ([…], 42 days): 33.0 g/dL
- Mean corpuscular (cell) volume ([…], 42 days): 67.9 fL
- Platelet count ([…], 42 days): 307 10^3/μL
- Red blood cell count ([…], 42 days): 6.83 10^6/μL
- Red cell distribution width ([…], 42 days): 12.4%
- White blood cell count ([…], 42 days): 10.82 10^3/μL
